The source of these data is article PMC314469, “Protein Interaction Networks by Proteome Peptide Scanning” (PLoS Biology, 2004).

Assay [1] addresses T1, amphyphisin SH3 (AMPH_HUMAN), P49418.
T1 chain: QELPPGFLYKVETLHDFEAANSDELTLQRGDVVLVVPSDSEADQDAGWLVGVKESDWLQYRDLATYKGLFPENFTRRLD
Put plainly: SPOT array.

The target in assay [2] is endophilin SH3 (SH3G2_HUMAN), Q99962. In words: SPOT array.

For the molecule SGPGPARPARARPR [P53539 130-143], the normalised SPOT signal, Boehringer light units (BLU); mean over the file's lines of this peptide in assay [1] is 14900; in assay [2], 17200.

Take SISFPTRPPLQAQI [Q8TDT3 61-75]: the normalised SPOT signal, Boehringer light units (BLU); mean over the file's lines of this peptide in assay [1] came to 61.2; in assay [2], 162.

As to SGGRPLRPPHPVAK [O76081 141-155], the normalised SPOT signal, Boehringer light units (BLU); mean over the file's lines of this peptide is 718 in assay [1] and 6230 in assay [2].

For the molecule SINLLSRPERGWEG [Q14801 17-30], the normalised SPOT signal, Boehringer light units (BLU); mean over the file's lines of this peptide was 0 in assay [1] and 97.2 in assay [2].

Take SGVLLVRPSRLSSS [P11362 439-452]: the normalised SPOT signal, Boehringer light units (BLU); mean over the file's lines of this peptide in assay [1] stood at 7990; in assay [2] it was 210.

For the molecule SGPDLRRPPTPAPW [Q96IB8 451-464], the normalised SPOT signal, Boehringer light units (BLU); mean over the file's lines of this peptide came to 39.4 in assay [1] and 39.1 in assay [2].

Consider SGMAFPRPKRPAPA [Q9BQ84 245-258], for which the normalised SPOT signal, Boehringer light units (BLU); mean over the file's lines of this peptide in assay [1] was 1310; in assay [2], 629.

For the molecule SIHPPGRPPAVRGP [P50570 773-787], the values for the normalised SPOT signal, Boehringer light units (BLU); mean over the file's lines of this peptide in assay [1] and in assay [2] were 340 and 2730, respectively.

Consider SGKGLRRPHSTVEE [Q9P2L5 16-29], for which the normalised SPOT signal, Boehringer light units (BLU); mean over the file's lines of this peptide in assay [1] turned out to be 44.8; in assay [2], 17.2.

Consider SKASLSRPGRRPLG [Q9C0H4 580-593], for which the normalised SPOT signal, Boehringer light units (BLU); mean over the file's lines of this peptide came to 226 in assay [1] and 53.5 in assay [2].

SGGRPIKPPKKDLE [Q15059 280-294]: the normalised SPOT signal, Boehringer light units (BLU); mean over the file's lines of this peptide was 48.5 in assay [1] and 66 in assay [2].

As for SAGPPSRPQRPFSA [O43257 105-118], the normalised SPOT signal, Boehringer light units (BLU); mean over the file's lines of this peptide in assay [1] was 4230; in assay [2] it was 2420.

In the case of SHGSPRRPGPEPGA [O95180 532-545], the normalised SPOT signal, Boehringer light units (BLU); mean over the file's lines of this peptide came out at 44.7 in assay [1] and 31 in assay [2].

SITQLRRPSQLLYP [Q96AN7 126-139]: the normalised SPOT signal, Boehringer light units (BLU); mean over the file's lines of this peptide amounted to 9.2 in assay [1] and 36.3 in assay [2].

For the molecule SLLDFIRPLKISSD [Q9UPM8 1026-1039], the normalised SPOT signal, Boehringer light units (BLU); mean over the file's lines of this peptide in assay [1] is 219; in assay [2], 0.

As for AAVAPSRPGREPQA [Q9ULI4 780-793], the values for the normalised SPOT signal, Boehringer light units (BLU); mean over the file's lines of this peptide in assay [1] and in assay [2] were 2520 and 418, respectively.

As to SLKRPKRPLFNFAL [Q96RW7 70-83], the values for the normalised SPOT signal, Boehringer light units (BLU); mean over the file's lines of this peptide in assay [1] and in assay [2] were 169 and 2170, respectively.

Take SGLAPKRPGPAGEL [Q16849 127-140]: the normalised SPOT signal, Boehringer light units (BLU); mean over the file's lines of this peptide worked out at 22.9 in assay [1] and 11.3 in assay [2].

SGNSLKRPDTTESL [Q96SU4 326-339]: the normalised SPOT signal, Boehringer light units (BLU); mean over the file's lines of this peptide in assay [1] was 24.4; in assay [2], 18.9.

As to SLEVIRRPETKVLI [Q9BYK8 558-571], the normalised SPOT signal, Boehringer light units (BLU); mean over the file's lines of this peptide in assay [1] turned out to be 22.1; in assay [2], 65.4.

On to SLASPRRPLLSDFA [Q96RJ6 21-34], for which the normalised SPOT signal, Boehringer light units (BLU); mean over the file's lines of this peptide was found to be 78.6 in assay [1] and 1690 in assay [2].

Consider SGGRLRRPVNVSLD [P22460 181-194], for which the values for the normalised SPOT signal, Boehringer light units (BLU); mean over the file's lines of this peptide in assay [1] and in assay [2] were 56.9 and 54.6, respectively.

For SLKIFRRPRKLFMQ [Q99776 220-233], the normalised SPOT signal, Boehringer light units (BLU); mean over the file's lines of this peptide in assay [1] stood at 88.1; in assay [2], 74.5.

With SLALPRRPQNRDSI [Q9HCG4 261-274], the normalised SPOT signal, Boehringer light units (BLU); mean over the file's lines of this peptide worked out at 96.2 in assay [1] and 866 in assay [2].

As for SGSRPRKPPPRKHT [Q9P189 81-95], the results for the normalised SPOT signal, Boehringer light units (BLU); mean over the file's lines of this peptide in assay [1] and in assay [2] were 3680 and 3720, respectively.

Turning to SKTPPQRPPPQGSL, the normalised SPOT signal, Boehringer light units (BLU); mean over the file's lines of this peptide was found to be 193 in assay [1] and 2380 in assay [2].

With SGSKLKRPTPTFHS [Q9UPN3 5307-5320], the normalised SPOT signal, Boehringer light units (BLU); mean over the file's lines of this peptide in assay [1] was found to be 41.6; in assay [2] it was 40.3.

For SKTPPQRPPPQGGP, the normalised SPOT signal, Boehringer light units (BLU); mean over the file's lines of this peptide in assay [1] was determined as 127; in assay [2] it was 1450.

For the molecule SGTALLRPLRPKPP [Q92766 106-119], the results for the normalised SPOT signal, Boehringer light units (BLU); mean over the file's lines of this peptide in assay [1] and in assay [2] were 147 and 153, respectively.

As for SARGPLRPPVRSPA [P30084 9-23], the normalised SPOT signal, Boehringer light units (BLU); mean over the file's lines of this peptide in assay [1] came to 3810; in assay [2] it was 1950.

For SGTPIRRPMGQMKP [P16930 169-182], the normalised SPOT signal, Boehringer light units (BLU); mean over the file's lines of this peptide in assay [1] was 3.3; in assay [2], 148.

Take SGLRLRRPRVSSTE [Q9H3P9 250-263]: the normalised SPOT signal, Boehringer light units (BLU); mean over the file's lines of this peptide stood at 67.4 in assay [1] and 44.7 in assay [2].

SIVEFFRPPKEVHL [Q96RL7 600-613]: the normalised SPOT signal, Boehringer light units (BLU); mean over the file's lines of this peptide was 164 in assay [1] and 98.5 in assay [2].

Regarding SIWDPRRPLNTTEG [P09848 409-422], the normalised SPOT signal, Boehringer light units (BLU); mean over the file's lines of this peptide in assay [1] was 10.9; in assay [2], 41.8.

Turning to SLSFIARPGKVSQL [P21128 321-334], the values for the normalised SPOT signal, Boehringer light units (BLU); mean over the file's lines of this peptide in assay [1] and in assay [2] were 152 and 146, respectively.

On to SLHGPRRPQPGASG [O95428 745-758], for which the values for the normalised SPOT signal, Boehringer light units (BLU); mean over the file's lines of this peptide in assay [1] and in assay [2] were 33.5 and 256, respectively.

In the case of SHHPPDRPPDPFST [Q8TA97 483-497], the normalised SPOT signal, Boehringer light units (BLU); mean over the file's lines of this peptide in assay [1] was 30.4; in assay [2], 1390.

Turning to SALSLRRPHSGWSA [O75097 1019-1032], the normalised SPOT signal, Boehringer light units (BLU); mean over the file's lines of this peptide was determined as 27.1 in assay [1] and 47.4 in assay [2].
